The values below come from patent US8173771B2, “Humanin receptor or humanin-like polypeptide receptor” (Keio Univeristy, priority 2005, dated 2012).

In test [1] the target is T1, G-CSFR/gp130 chimera proteins (Homo sapiens, UniProt P40189+Q99062).
T1 construct: the extracellular domain of the human G-CSF receptor fused to the full transmembrane domain; expressed in transfected cells; host or cells: F11 cells
T1 sequence (Q99062+P40189 with tags, fused parts or gaps): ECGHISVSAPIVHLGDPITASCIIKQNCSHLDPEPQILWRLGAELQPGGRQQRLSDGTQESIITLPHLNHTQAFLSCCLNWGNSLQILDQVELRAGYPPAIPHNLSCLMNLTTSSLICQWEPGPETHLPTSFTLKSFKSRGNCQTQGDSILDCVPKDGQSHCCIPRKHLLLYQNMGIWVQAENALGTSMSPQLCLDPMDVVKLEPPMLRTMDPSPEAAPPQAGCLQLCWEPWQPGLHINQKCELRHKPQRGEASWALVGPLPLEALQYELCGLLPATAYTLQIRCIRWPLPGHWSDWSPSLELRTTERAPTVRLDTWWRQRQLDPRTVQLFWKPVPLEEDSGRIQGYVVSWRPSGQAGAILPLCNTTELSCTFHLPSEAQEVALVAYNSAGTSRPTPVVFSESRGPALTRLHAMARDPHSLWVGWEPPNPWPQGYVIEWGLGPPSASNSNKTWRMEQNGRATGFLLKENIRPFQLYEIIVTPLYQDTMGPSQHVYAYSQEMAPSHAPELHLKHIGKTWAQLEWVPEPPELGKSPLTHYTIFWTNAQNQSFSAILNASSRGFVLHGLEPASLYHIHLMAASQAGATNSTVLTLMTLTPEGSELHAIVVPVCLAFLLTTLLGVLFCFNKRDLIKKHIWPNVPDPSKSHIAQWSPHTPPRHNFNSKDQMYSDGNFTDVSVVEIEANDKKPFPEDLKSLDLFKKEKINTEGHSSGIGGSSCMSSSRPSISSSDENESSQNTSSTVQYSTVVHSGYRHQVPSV
Description: G-CSF stimulation of G-CSFR/gp130 chimera proteins in F11 cells, cell mortality by Trypan blue exclusion. Type of test: cell-based. The following applies: 100 nM; G-133 expressed. On the procedure:
(§1) B) F11 cells were transfected with 0.5 μg of the pcDNA3 vector or pcDNA3-APP in association with 0.5 μg of the pEFBos vector or the pEFBos vectors encoding the extracellular domain of the human G-CSF receptor fused to the full transmembrane domain and a C-terminally truncated intracytoplasmic domain of gp130 (named “G-CSFR/gp130”). G-CSFR/gp130 (277) contains the full intracytoplasmic domain of gp130 corresponding to amino acids 1-277, while G-CSFR/gp130 (25), (68), and (133) contain the intracytoplasmic domains corresponding to amino acids 1-25, 1-68, and 1-133, respectively. At 24 hr after transfection, the cells were added with indicated amounts of human G-CSF. Cell mortality was determined by Trypan blue exclusion assay at 72 hr after transfection. The results of immunoblot analysis of the expression of […] are shown in photos.
(§2) C) Instead of the pcDNA3-V6421-APP vector, pcDNA3-K595 N/M596L-APP (NL-APP), M146L-PS1 and N141-I-PS2 vectors were used to do the same experiments as in FIG. 2A. The results of immunoblot analysis of the expression of NL-APP, M146L-PS1 and N141-I-PS2 are shown in photos.
(§3) D) F11 cells were transfected with 0.5 μg of the pEFBos vector or pEF-G85R-SOD1 in association with 0.5 μg of the pEFBos vector or each pEFBos vector encoding G-CSFR/gp130 (277) or G-CSFR/gp130 (25). At 24 hr after transfection, the cells were added with indicated amounts of human G-CSF. Cell mortality was determined by Trypan blue exclusion assay at 72 hr after transfection. The results of the expression of G85R-SOD1, which were confirmed by the immunoblot analysis, are shown in photos.
(§4) Neurohybrid F11 cells and pcDNA3 vectors encoding V642I-APP, K595N/M596L-APP (NL-APP), M146L-PS1, and N141I-PS2 cDNA were prepared as already described (Hashimoto et al, 2000, 2001a, 2003). pCAG-human gp130 and pCAG-human gp130 ED (the extracellular domain of human gp130) were prepared as described (Kumanogoh et al., 1997). pcDNA3 vectors encoding the extracellular domain of the G-CSF receptor fused to the full-length transmembrane domain and various portions of the intracellular domains of human gp130, were prepared as described (Fukada et al, 1996). The intracellular domain of gp130 was C-terminally truncated. A chimera protein named G-277 contained a 277 amino acid-long full intracellular domain of gp130 (SEQ ID NO:35), while G-195, G-133, G-68, and G-25 contained the amino acids 1-195 (SEQ ID NO:36), 1-133 (SEQ ID NO:37), 1-68 (SEQ ID NO:38), and 1-25 (SEQ ID NO:39) intracellular portions, respectively. C-terminally myc-tagged human WSX-1 and myc-tagged mouse CREME9 cDNAs were amplified from human and mouse embryo cDNA (BioChain) by PCR using sets of sense primers and antisense primers: 5′-[…]-3′ (SEQ ID NO:3) and 5′-[…]-3′ (SEQ ID NO:4) for human WSX-1; 5′-[…]-3′ (SEQ ID NO:5); and 5′-[…]-3′ (SEQ ID NO:6) for mouse CREME9. Plasmids encoding C-terminally V5-tagged human CNTF-R (V %-CNTF-R) and rat IL-6R (pUCM18-rat IL-6R) were purchased from Invitrogen and American Culture Collection, respectively. A pEFBos vector comprising familial ALS (FALS) gene G85R-SOD1 was kindly provided by Dr. Shoji Tsuji. Cosmid of human wild […] was constructed by inserting a full-length gp130 into a SwaI site of pAxCAwt (TaKaRa).
(§5) The transfection procedures were as described (Hashimoto et al, 2000, 2001a, 2003). F11 cells, seeded at 7×10^4/well in 6-well dishes, were transfected with indicated vectors. Transfection efficiency in these protocols has been determined to be invariably around 70%. At 72 hrs after transfection, the Trypan blue exclusion assay and LDH assay were performed as a cell-death assay and the WST-8 assay was performed as cell-viability assays (Hashimoto et al, 2000, 2001a b, 2003). HN was added to the culture medium usually at 5 hrs after transfection, but in some cases at 24 hrs after transfection.

Test [2] relates to G-CSFR/gp130 chimera proteins. The description is as above. Format: cell-based, human. The following applies: 100 nM. On the procedure: as §1, §2, §3, §4, §5

B1: G-CSF: human G-CSF, ligand stimulating G-CSFR/gp130 chimera proteins (protein, UniProt P09919 31-207, looked up)
Granulocyte …: TPLGPASSLPQSFLLKCLEQVRKIQGDGAALQEKLVSECATYKLCHPEELVLLGHSLGIPWAPLSSCPSQALQLAGCLSQLHSGLFLYQGLLQALEGISPELGPTLDTLQLDVADFATTIWQQMEELGMAPALQPTQGAMPAFASAFQRRAGGVLVASHLQSFLEVSYRVLRHLAQP
Consider B1, for which the figures for the “prevention of neuronal cell death induced by V642I-APP” value in test [1] and in test [2] (G-25 or G-68 expressed) were “partially prevented” and “did not prevent”, respectively. Further, the “prevention of neuronal cell death induced by mutant Cu/Zn-superoxide dismutase (G85R-SOD1)” value in test [2] was “did not prevent”.
